Measured values from publication PMC7498358.

Biological target: YB-1 CSDex (Homo sapiens, UniProt P67809 51-140)
Assay: NMR HSQC titration

Chain of YB-1 CSDex (P67809 51-140): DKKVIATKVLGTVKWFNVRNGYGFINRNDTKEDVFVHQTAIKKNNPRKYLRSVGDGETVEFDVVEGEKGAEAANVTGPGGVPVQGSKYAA

B1: CACC dsDNA (dsDNA)
DNA 1: TCAACACCTC
DNA 2: GAGGTGTTGA
binding result: binds
